Here are results for two molecules from paper PMC4337726, “A molecular basis for the differential roles of Bub1 and BubR1 in the spindle assembly checkpoint” (eLife, 2015).

Assay [1] concerns the target anaphase promoting complex/cyclosome, P30260;Q9UJX3. Kind of assay: co-immunoprecipitation (anti-Cdc27 IP), quantified Western blot. Particulars: mitotic Flp-In T-REx cell lines; mean of two independent experiments; parent: 1.0; read off a plot. In general terms: Immunoblotting shows a protein as a band on a membrane.
The target of the next assay is Apc7. Kind of assay: co-immunoprecipitation (anti-GFP IP), quantified Western blot. Particulars: mitotic Flp-In T-REx cell lines; mean of two independent experiments; parent: 1.0; read off a plot.
The next assay concerns the target Mad2 (UniProt Q13257). The description is as above. To be noted: mitotic Flp-In T-REx cell lines; mean of two independent experiments; parent: 1.0; read off a plot.
In the next assay the target is Bub3 (UniProt O43684). Described as above. Particulars: mitotic Flp-In T-REx cell lines; mean of two independent experiments; parent: 1.0; read off a plot.
Chain of Bub3 (O43684 whole entry): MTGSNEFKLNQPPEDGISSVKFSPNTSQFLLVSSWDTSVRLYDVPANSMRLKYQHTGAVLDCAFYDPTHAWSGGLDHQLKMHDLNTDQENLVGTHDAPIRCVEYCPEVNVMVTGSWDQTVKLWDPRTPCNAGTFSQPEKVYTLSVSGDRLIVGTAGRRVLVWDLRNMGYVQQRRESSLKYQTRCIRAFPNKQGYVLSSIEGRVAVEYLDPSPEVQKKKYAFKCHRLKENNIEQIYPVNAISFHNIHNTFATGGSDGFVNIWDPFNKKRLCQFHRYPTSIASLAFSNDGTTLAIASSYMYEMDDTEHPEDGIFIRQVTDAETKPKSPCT
The next assay addresses Cdc20 (UniProt Q12834). Described as above. Particulars: mitotic Flp-In T-REx cell lines; mean of two independent experiments; parent: 1.0; read off a plot.
In the next assay the target is Cdc27. The description is as above. To be noted: mitotic Flp-In T-REx cell lines; mean of two independent experiments; parent: 1.0; read off a plot.
Another assay has as its target T1, H6-Bub1^209–409-MBP/Bub3 (human | , UniProt O43683 209-409; O43684 1-328).
T1 construct: Bub3, untagged, co-expressed; source: insect cells, co-expressed, purified (TALON, SEC); not shown: H6, N-terminal, kept; MBP, C-terminal, kept
The assay is described as follows: SEC; mobility shift; proteins at 15 µM, 1 hr at 20–22°C in 50 mM Tris–HCl pH 8, 150 mM KCl, 1.5 mM TCEP, 0.05% Tween20; Superose6 10/300; SDS-PAGE of fractions. To be noted: both partners purified. A general note: Size exclusion chromatography separates by hydrodynamic size, large species first.

A further assay concerns the target T2, H6-Bub1^1–409/Bub3 (human | , UniProt O43683 1-409; O43684 1-328).
T2 construct: Bub3, co-expressed, untagged or as Bub3-TRX; source: insect cells, co-infection and co-expression, purified (HisTrap, S200 SEC); not shown: H6, N-terminal, kept
The assay is described as above. Particulars: both partners purified.

Chain of Cdc20 (Q12834 whole entry): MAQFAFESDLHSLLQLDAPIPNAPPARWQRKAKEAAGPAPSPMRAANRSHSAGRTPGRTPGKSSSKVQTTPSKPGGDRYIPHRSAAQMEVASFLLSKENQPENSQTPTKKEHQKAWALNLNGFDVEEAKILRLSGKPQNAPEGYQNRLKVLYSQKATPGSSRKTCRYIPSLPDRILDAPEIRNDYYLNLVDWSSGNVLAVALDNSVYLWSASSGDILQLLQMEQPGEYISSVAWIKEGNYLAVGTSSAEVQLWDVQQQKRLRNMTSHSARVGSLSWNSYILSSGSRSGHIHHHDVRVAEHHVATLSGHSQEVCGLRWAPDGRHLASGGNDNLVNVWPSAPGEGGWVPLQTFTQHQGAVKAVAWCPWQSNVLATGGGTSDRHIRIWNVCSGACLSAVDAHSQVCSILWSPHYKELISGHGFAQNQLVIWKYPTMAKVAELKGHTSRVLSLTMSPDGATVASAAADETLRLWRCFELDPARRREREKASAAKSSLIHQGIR
T1 sequence (O43683 209-409, chain 1 of 2): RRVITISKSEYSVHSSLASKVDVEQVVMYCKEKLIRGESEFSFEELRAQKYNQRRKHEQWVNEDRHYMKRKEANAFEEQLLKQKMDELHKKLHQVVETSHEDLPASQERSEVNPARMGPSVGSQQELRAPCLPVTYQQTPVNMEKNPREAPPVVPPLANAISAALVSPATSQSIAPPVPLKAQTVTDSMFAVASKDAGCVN
T1 sequence (O43684 whole entry, chain 2 of 2): as the sequence (O43684 whole entry) above
Chain of Mad2 (Q13257 whole entry): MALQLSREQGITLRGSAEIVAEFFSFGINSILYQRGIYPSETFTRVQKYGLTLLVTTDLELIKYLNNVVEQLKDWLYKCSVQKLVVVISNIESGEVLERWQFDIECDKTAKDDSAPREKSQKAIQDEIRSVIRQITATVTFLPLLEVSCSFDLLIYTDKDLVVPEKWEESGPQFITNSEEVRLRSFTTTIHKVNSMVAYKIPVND
T2 sequence (O43683 1-409, chain 1 of 2): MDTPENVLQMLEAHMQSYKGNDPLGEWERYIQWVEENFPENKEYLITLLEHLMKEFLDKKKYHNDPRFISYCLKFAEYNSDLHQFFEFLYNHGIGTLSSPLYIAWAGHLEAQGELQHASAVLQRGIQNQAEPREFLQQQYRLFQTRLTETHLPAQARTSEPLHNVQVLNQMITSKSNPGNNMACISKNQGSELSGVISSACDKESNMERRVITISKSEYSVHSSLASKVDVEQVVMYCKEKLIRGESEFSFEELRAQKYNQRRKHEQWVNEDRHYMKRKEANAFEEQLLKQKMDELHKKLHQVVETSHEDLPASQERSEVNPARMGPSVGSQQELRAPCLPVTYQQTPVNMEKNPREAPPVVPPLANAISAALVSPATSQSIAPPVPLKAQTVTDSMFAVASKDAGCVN
T2 sequence (O43684 whole entry, chain 2 of 2): as the sequence (O43684 whole entry) above

For the molecule “GFP-BubR1 wild type, full length (from UniProt O60566) B1-loop”, the ratio to parent in assay [1] is 0.15; in the assay with Apc7 it was 0.08; with Mad2, 0.12; with Bub3, 1.1; with Cdc20, 0.12; with Cdc27 it was 0.06.

B1: H6-TRX-BubR1^362–571 (domain or fragment, human, UniProt O60566 362-571, looked up)
chain: INHILSTRKPGKEEGDPLQRVQSHQQASEEKKEKMMYCKEKIYAGVGEFSFEEIRAEVFRKKLKEQREAELLTSAEKRAEMQKQIEEMEKKLKEIQTTQQERTGDQQEETMPTKETTKLQIASESQKIPGMTLSSSVCQVNCCARETSLAENIWQEQPHSKGPSVPFSIFDEFLLSEKKNKSPPADPPRVLAQRRPLAVLKTSESITSNE
notes: source: insect cells, baculovirus, purified (TALON, SEC)
For the molecule B1, the binding result in the assay with H6-Bub1^209–409-MBP/Bub3 and with H6-Bub1^1–409/Bub3 was “binds” throughout.
